# T1: Cre recombinase monomer with W315C mutation
# T1 chain: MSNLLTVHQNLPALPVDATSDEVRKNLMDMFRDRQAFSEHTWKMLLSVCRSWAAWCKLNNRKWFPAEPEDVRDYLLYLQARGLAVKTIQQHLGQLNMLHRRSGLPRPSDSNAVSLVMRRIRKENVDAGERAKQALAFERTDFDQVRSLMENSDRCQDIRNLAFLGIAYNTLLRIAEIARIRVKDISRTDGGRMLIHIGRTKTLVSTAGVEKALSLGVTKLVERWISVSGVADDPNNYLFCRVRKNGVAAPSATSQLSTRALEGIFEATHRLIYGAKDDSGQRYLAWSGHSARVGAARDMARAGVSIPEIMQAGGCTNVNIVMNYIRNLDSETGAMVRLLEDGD
# T2: Cre recombinase monomer with Y324S mutation
# T2 chain: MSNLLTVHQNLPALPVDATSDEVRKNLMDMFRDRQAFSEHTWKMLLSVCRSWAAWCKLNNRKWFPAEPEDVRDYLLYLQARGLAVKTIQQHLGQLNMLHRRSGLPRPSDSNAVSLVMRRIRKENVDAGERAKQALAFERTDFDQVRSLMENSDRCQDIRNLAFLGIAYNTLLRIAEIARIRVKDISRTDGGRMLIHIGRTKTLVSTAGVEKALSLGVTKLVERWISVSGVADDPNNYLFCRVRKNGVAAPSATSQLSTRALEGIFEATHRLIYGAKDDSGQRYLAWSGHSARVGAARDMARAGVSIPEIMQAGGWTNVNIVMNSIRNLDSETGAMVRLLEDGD
# T3: Cre recombinase monomer with Y324H mutation
# T3 chain: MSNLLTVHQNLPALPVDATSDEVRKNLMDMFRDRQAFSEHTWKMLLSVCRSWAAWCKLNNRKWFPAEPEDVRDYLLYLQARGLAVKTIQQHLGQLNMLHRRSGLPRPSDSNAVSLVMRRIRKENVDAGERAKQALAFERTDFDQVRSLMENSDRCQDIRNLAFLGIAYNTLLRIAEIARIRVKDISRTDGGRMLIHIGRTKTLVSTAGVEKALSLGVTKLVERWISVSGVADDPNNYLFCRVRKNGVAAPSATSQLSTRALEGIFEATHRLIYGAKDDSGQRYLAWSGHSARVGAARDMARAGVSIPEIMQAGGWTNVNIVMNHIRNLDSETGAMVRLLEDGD
# T4: Cre recombinase monomer with Y324C mutation
# T4 chain: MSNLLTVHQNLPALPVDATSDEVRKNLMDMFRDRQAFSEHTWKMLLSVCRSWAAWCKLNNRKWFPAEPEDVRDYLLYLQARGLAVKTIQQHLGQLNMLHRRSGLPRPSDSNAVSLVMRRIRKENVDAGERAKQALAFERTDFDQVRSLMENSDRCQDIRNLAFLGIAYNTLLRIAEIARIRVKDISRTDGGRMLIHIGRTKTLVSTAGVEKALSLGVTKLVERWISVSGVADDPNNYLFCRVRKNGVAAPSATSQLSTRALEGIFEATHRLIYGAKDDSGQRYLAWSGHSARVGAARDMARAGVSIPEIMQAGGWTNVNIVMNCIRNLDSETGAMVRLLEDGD
# T5: Cre recombinase monomer with W315S mutation
# T5 chain: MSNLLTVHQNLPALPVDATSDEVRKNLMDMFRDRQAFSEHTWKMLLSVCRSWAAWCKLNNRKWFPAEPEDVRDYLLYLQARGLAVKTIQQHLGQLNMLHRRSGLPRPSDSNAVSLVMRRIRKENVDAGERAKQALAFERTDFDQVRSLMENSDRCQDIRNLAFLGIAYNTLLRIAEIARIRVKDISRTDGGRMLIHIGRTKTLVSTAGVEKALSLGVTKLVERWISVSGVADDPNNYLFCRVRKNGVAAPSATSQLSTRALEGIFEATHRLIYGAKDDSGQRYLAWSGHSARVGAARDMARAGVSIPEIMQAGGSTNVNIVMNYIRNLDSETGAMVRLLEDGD
# T6: Cre recombinase monomer with W315N mutation
# T6 chain: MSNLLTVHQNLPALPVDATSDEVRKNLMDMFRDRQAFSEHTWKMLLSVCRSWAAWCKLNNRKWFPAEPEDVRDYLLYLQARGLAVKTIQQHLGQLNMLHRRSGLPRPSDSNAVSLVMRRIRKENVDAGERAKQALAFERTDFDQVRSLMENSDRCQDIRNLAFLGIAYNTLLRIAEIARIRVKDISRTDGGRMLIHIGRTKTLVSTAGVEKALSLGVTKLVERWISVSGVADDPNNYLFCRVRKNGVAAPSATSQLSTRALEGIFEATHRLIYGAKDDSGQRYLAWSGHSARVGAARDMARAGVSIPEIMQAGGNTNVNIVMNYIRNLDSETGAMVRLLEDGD
# T7: Cre recombinase monomer with W315I mutation
# T7 chain: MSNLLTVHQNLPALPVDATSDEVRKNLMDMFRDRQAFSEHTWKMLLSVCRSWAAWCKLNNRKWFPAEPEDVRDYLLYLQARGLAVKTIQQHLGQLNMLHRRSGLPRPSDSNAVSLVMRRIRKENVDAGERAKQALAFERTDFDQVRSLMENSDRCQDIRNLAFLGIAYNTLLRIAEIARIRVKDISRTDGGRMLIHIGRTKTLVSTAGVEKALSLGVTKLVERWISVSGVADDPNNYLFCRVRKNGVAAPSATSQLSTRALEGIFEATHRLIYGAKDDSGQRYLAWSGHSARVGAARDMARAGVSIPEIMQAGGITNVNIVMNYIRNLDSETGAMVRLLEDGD
# T8: Cre recombinase monomer with Y324K mutation
# T8 chain: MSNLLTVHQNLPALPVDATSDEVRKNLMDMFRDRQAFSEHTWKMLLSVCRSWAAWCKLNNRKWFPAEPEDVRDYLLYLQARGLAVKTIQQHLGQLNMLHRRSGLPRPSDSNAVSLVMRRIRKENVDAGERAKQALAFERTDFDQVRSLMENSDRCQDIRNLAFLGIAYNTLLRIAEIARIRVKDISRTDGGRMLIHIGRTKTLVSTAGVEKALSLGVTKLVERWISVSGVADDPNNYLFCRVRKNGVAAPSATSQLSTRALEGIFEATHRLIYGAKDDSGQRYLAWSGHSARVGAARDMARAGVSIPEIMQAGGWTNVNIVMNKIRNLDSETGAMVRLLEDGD
# How the values were obtained:
# [1] = target: T1, Cre recombinase monomer with W315C …
# [2] = target: T2, Cre recombinase monomer with Y324S …
# [3] = target: T3, Cre recombinase monomer with Y324H …
# [4] = target: T4, Cre recombinase monomer with Y324C …
# [5] = target: T5, Cre recombinase monomer with W315S …
# [6] = target: T6, Cre recombinase monomer with W315N …
# [7] = target: T7, Cre recombinase monomer with W315I …
# [8] = target: T8, Cre recombinase monomer with Y324K …
protein,measurement,setting,value
Cre recombinase monomer with Q311R mutation (protein) MSNLLTVHQNLPALPVDATSDEVRKNLMDMFRDRQAFSEHTWKMLLSVCRSWAAWCKLNNRKWFPAEPEDVRDYLLYLQARGLAVKTIQQHLGQLNMLHRRSGLPRPSDSNAVSLVMRRIRKENVDAGERAKQALAFERTDFDQVRSLMENSDRCQDIRNLAFLGIAYNTLLRIAEIARIRVKDISRTDGGRMLIHIGRTKTLVSTAGVEKALSLGVTKLVERWISVSGVADDPNNYLFCRVRKNGVAAPSATSQLSTRALEGIFEATHRLIYGAKDDSGQRYLAWSGHSARVGAARDMARAGVSIPEIMRAGGWTNVNIVMNYIRNLDSETGAMVRLLEDGD,Median dimer activity (recombination on loxP),[1],84%
same,Median dimer activity (recombination on loxP),[2],81%
same,Median dimer activity (recombination on loxP),[3],76%
same,Median dimer activity (recombination on loxP),[4],93%
same,Median dimer activity (recombination on loxP),[5],37%
same,Median dimer activity (recombination on loxP),[6],64%
same,Median dimer activity (recombination on loxP),[7],92%
same,Median dimer activity (recombination on loxP),[8],85%
